Data set [1] concerns HeLa Kyoto. Kind of data set: solubility in G1/S (NP-40 vs SDS abundance) (log2 ratio); higher = more soluble. As to conditions: cell cycle stage: G1/S.
The subject of data set [2] is HeLa Kyoto. The experiment in a line: melting temperature (median over replicates), in situ; higher = more thermally stable.
The test system of data set [3] is HeLa Kyoto. The experiment in a line: solubility change mitosis vs G1/S (difference of NP-40 vs SDS log2 ratios) (log2 ratio difference); higher = more soluble in mitosis.
In data set [4] the test system is HeLa Kyoto. The experiment in a line: thermal stability score vs G1/S (z-score of summed log2 fold changes over temperatures); higher = more thermally stable than in G1/S.
Setting [5] is: cell cycle stage: early G1 (4.5 h after nocodazole release).

The results in this text go back to the supplement of paper PMC5998384.
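Wherever melting temperature (median over replicates), in situ is given: HeLa Kyoto cells synchronized by double thymidine or nocodazole block, proteins quantified by TMT10plex mass spectrometry, three independent biological replicates.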
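Wherever solubility change mitosis vs G1/S (difference of NP-40 vs SDS log2 ratios) is given: synchronized HeLa Kyoto cells (double thymidine block for G1/S, nocodazole release for mitosis), protein amounts in NP-40 versus SDS lysates quantified by mass spectrometry, three biological replicates.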
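Wherever solubility in G1/S (NP-40 vs SDS abundance) is given: HeLa Kyoto cells arrested at G1/S by double thymidine block, proteins quantified by TMT10plex mass spectrometry in mild NP-40 versus SDS extracts, three biological replicates.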
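Wherever thermal stability score vs G1/S (z-score of summed log2 fold changes over temperatures) is given: synchronized HeLa Kyoto cells, proteins quantified by TMT10plex mass spectrometry, three biological replicates, mitosis taken 0.5 h after nocodazole release, G1/S directly after double thymidine block.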

Turning to “MKVKMLSRNPDNYVRETKLDLQRVPRNYDPALHPFEVPREYIRALNATKLERVFAKPFLASLDGHRDGVNCLAKHPEKLATVLSGACDGEVRIWNLTQRNCIRTIQAHEGFVRGICTRFCGTSFFTVGDDKTVKQWKMDGPGYGDEEEPLHTILGKTVYTGIDHHWKEAVFATCGQQVDIWDEQRTNPICSMTWGFDSISSVKFNPIETFLLGSCASDRNIVLYDMRQATPLKKVILDMRTNTICWNPMEAFIFTAANEDYNLYTFDMRALDTPVMVHMDHVSAVLDVDYSPTGKEFVSASFDKSIRIFPVDKSRSREVYHTKRMQHVICVKWTSDSKYIMCGSDEMNIRLWKANASEKLGVLTSREKAAKDYNQKLKEKFQHYPHIKRIARHRHLPKSIYSQIQEQRIMKEARRRKEVNRIKHSKPGSVPLVSEKKKHVVAVVK [DCAF13]”, the “solubility in G1/S (log2)” value in the data set on HeLa Kyoto [1] is -2.16. The same sequence returned a melting temperature in the data set on HeLa Kyoto [2] (cell cycle stage: G1/S) of 54.8 °C. The “solubility change mitosis (log2)” value with HeLa Kyoto [3] turned out to be 0.446. Also, the thermal stability score in the data set with HeLa Kyoto [4] (setting [5]) is -1.4; in the data set on HeLa Kyoto [4] (cell cycle stage: mitosis), -1.29.
As to “MKVTVCFGRTRVVVPCGDGHMKVFSLIQQAVTRYRKAIAKDPNYWIQVHRLEHGDGGILDLDDILCDVADDKDRLVAVFDEQDPHHGGDGTSASSTGTQSPEIFGSELGTNNVSAFQPYQATSEIEVTPSVLRANMPLHVRRSSDPALIGLSTSVSDSNFSSEEPSRKNPTRWSTTAGFLKQNTAGSPKTCDRKKDENYRSLPRDTSNWSNQFQRDNARSSLSASHPMVGKWLEKQEQDEDGTEEDNSRVEPVGHADTGLEHIPNFSLDDMVKLVEVPNDGGPLGIHVVPFSARGGRTLGLLVKRLEKGGKAEHENLFRENDCIVRINDGDLRNRRFEQAQHMFRQAMRTPIIWFHVVPAANKEQYEQLSQSEKNNYYSSRFSPDSQYIDNRSVNSAGLHTVQRAPRLNHPPEQIDSHSRLPHSAHPSGKPPSAPASAPQNVFSTTVSSGYNTKKIGKRLNIQLKKGTEGLGFSITSRDVTIGGSAPIYVKNILPRGAAIQDGRLKAGDRLIEVNGVDLVGKSQEEVVSLLRSTKMEGTVSLLVFRQEDAFHPRELNAEPSQMQIPKETKAEDEDIVLTPDGTREFLTFEVPLNDSGSAGLGVSVKGNRSKENHADLGIFVKSIINGGAASKDGRLRVNDQLIAVNGESLLGKTNQDAMETLRRSMSTEGNKRGMIQLIVARRISKCNELKSPGSPPGPELPIETALDDRERRISHSLYSGIEGLDESPSRNAALSRIMGESGKYQLSPTVNMPQDDTVIIEDDRLPVLPPHLSDQSSSSSHDDVGFVTADAGTWAKAAISDSADCSLSPDVDPVLAFQREGFGRQSMSEKRTKQFSDASQLDFVKTRKSKSMDLGIADETKLNTVDDQKAGSPSRDVGPSLGLKKSSSLESLQTAVAEVTLNGDIPFHRPRPRIIRGRGCNESFRAAIDKSYDKPAVDDDDEGMETLEEDTEESSRSGRESVSTASDQPSHSLERQMNGNQEKGDKTDRKKDKTGKEKKKDRDKEKDKMKAKKGMLKGLGDMFRFGKHRKDDKIEKTGKIKIQESFTSEEERIRMKQEQERIQAKTREFRERQARERDYAEIQDFHRTFGCDDELMYGGVSSYEGSMALNARPQSPREGHMMDALYAQVKKPRNSKPSPVDSNRSTPSNHDRIQRLRQEFQQAKQDEDVEDRRRTYSFEQPWPNARPATQSGRHSVSVEVQMQRQRQEERESSQQAQRQYSSLPRQSRKNASSVSQDSWEQNYSPGEGFQSAKENPRYSSYQGSRNGYLGGHGFNARVMLETQELLRQEQRRKEQQMKKQPPSEGPSNYDSYKKVQDPSYAPPKGPFRQDVPPSPSQVARLNRLQTPEKGRPFYS [PARD3]”, the “solubility in G1/S (log2)” value with HeLa Kyoto [1] is -0.137. Besides, the melting temperature with HeLa Kyoto [2] (cell cycle stage: G1/S) is 47.7 °C; in the data set with HeLa Kyoto [2] (cell cycle stage: mitosis) it was 49.3 °C. Moreover, the “solubility change mitosis (log2)” value in the data set with HeLa Kyoto [3] was 0.111. In addition, the figures for the thermal stability score with HeLa Kyoto [4] (setting [5]) and with HeLa Kyoto [4] (cell cycle stage: mitosis) were 0.772 and 2.38, respectively.
“MLCGRPRSSSDNRNFLRERAGLSSAAVQTRIGNSAASRRSPAARPPVPAPPALPRGRPGTEGSTSLSAPAVLVVAVAVVVVVVSAVAWAMANYIHVPPGSPEVPKLNVTVQDQEEHRCREGALSLLQHLRPHWDPQEVTLQLFTDGITNKLIGCYVGNTMEDVVLVRIYGNKTELLVDRDEEVKSFRVLQAHGCAPQLYCTFNNGLCYEFIQGEALDPKHVCNPAIFRLIARQLAKIHAIHAHNGWIPKSNLWLKMGKYFSLIPTGFADEDINKRFLSDIPSSQILQEEMTWMKEILSNLGSPVVLCHNDLLCKNIIYNEKQGDVQFIDYEYSGYNYLAYDIGNHFNEFAGVSDVDYSLYPDRELQSQWLRAYLEAYKEFKGFGTEVTEKEVEILFIQVNQFALASHFFWGLWALIQAKYSTIEFDFLGYAIVRFNQYFKMKPEVTALKVPE [ETNK1]”: the “solubility in G1/S (log2)” value in the data set with HeLa Kyoto [1] was -0.0579. Moreover, the melting temperature with HeLa Kyoto [2] (cell cycle stage: G1/S) came to 53 °C; with HeLa Kyoto [2] (cell cycle stage: mitosis), 51.9 °C. In the data set on HeLa Kyoto [3], the “solubility change mitosis (log2)” value was -0.288. Besides, the values for the thermal stability score in the data set with HeLa Kyoto [4] (setting [5]) and with HeLa Kyoto [4] (cell cycle stage: mitosis) were -1.17 and -1.91, respectively.
Consider “MLDSLLALGGLVLLRDSVEWEGRSLLKALVKKSALCGEQVHILGCEVSEEEFREGFDSDINNRLVYHDFFRDPLNWSKTEEAFPGGPLGALRAMCKRTDPVPVTIALDSLSWLLLRLPCTTLCQVLHAVSHQDSCPGDSSSVGKVSVLGLLHEELHGPGPVGALSSLAQTEVTLGGTMGQASAHILCRRPRQRPTDQTQWFSILPDFSLDLQEGPSVESQPYSDPHIPPVDPTTHLTFNLHLSKKEREARDSLILPFQFSSEKQQALLRPRPGQATSHIFYEPDAYDDLDQEDPDDDLDI [ELP5]”, for which the “solubility in G1/S (log2)” value in the data set with HeLa Kyoto [1] was found to be 0.313. Further, the melting temperature amounted to 54.9 °C in the data set with HeLa Kyoto [2] (cell cycle stage: G1/S) and 53.9 °C in the data set with HeLa Kyoto [2] (cell cycle stage: mitosis). In addition, the “solubility change mitosis (log2)” value in the data set with HeLa Kyoto [3] is -0.11. Further, the values for the thermal stability score in the data set with HeLa Kyoto [4] (setting [5]) and in the data set with HeLa Kyoto [4] (cell cycle stage: mitosis) were -2.95 and -4.18, respectively.
